Measurements reported in publication PMC11879393 (Nucleic Acids Research, 2025).

T1: Rec27 (untagged, His6-SUMO tag removed by Ulp1) (S. pombe, UniProt Q9USR4 1-125)
T1 sequence (looked up): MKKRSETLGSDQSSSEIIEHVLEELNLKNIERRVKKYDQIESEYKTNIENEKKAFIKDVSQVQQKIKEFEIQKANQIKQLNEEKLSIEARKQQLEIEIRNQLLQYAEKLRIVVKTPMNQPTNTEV


Biological target: T1, Rec27 (untagged, His6-SUMO tag removed …)
Assay: mass photometry

| stoichiometry N | Binder |
| --- | --- |
| 1 | Rec25 (untagged) (natural protein, S. pombe, UniProt Q9C115 1-150, looked up) MVKGSVTNTSSIVKQFEKSSIKHETETIAFAKQFINECIREFQEQKDNVVEEKNTDQNHQNQNQEGVIIEIYQELLQKVDLISSELRQNLSSLQLRFQEVERDTGHDLLNVLNSLSQEARLAQKVLEEDGSQQGSQLIQGLLTCFQSTGN |
| 1 | Mug20 (untagged) (natural protein, S. pombe, UniProt Q9HGN4 1-151, looked up) MSEIITSLQTELSNRHANMVSEAVLAFSEHHDSALHSYFLNARVKDVILESLRTTEEKLRALDKLQLDASKNLSNLLVEYNSINAELESVNSKISSISSQEYALEEFQALSQNFEKNLVQHRRNSQNKLKCAMEKLKMIETSTHKAILDNF |
